PMC12490080, “Natural variation in Arabidopsis thaliana highlights a key role of glyoxalase I;2 in detoxifying glucose-derived reactive carbonyl species” (BMC Plant Biology, 2025)
Where a chain is given by its changes, count along the chain named. Names may count otherwise.

B1: GLXI;2 (Col-0 GLXI;2) (Arabidopsis thaliana) (protein)
chain: MAEASDLLEWPKKDNRRFLHVVYRVGDLDRTIEFYTEVFGMKLLRKRDIPEEKYSNAFLGFGPETSNFVVELTYNYGVSSYDIGTGFGHFAISTQDVSKLVENVRAKGGNVTREPGPVKGGGSVIAFVKDPDGYTFELIQRGPTPEPFCQVMLRVGDLDRAIKFYEKALGMRLLRKIERPEYKYTIGMMGYAEEYESIVLELTYNYDVTEYTKGNAYAQIAIGTDDVYKSGEVIKIVNQELGGKITREAGPLPGLGTKIVSFLDPDGWKTVLVDNKDFLKELE
notes: monomer; two domains, active site 2 (His89, Glu137, Gln150, Glu201)
B2: GLXI;2 (Col-0 GLXI;2) (Arabidopsis thaliana; F278I/K229N) (protein)
chain: B1 chain with K229N, F278I
notes: as for B1
B3: GLXI;2 (Col-0 GLXI;2) (Arabidopsis thaliana; K229N) (protein)
chain: B1 chain with K229N
notes: as for B1
B4: GLXI;2 (Col-0 GLXI;2) (Arabidopsis thaliana; F278I) (protein)
chain: B1 chain with F278I
notes: as for B1

What was measured:
purified protein [1] = substrate: O=CC=O; experiment: purified protein; type: biochemical, Arabidopsis thaliana; conditions: true substrate is the hemithioacetal of GO and GSH (preformed 30 min; HTA concentration calculated with Kdiss 3.0 mM), 1.7 mM GSH, 0.5 mM Mn2+, 100 mM MOPS pH 7.0, 25 °C
purified protein [2] = substrate: CC(=O)C=O; experiment: purified protein; type: biochemical, Arabidopsis thaliana; conditions: true substrate is the hemithioacetal of MGO and GSH (preformed 30 min; HTA concentration calculated with Kdiss 3.0 mM), 1.7 mM GSH, 0.5 mM Ni2+, 100 mM MOPS pH 7.0, 25 °C

Row | Protein | Km (purified protein [1]) [µM] | kcat (purified protein [1]) [s⁻¹] | kcat/Km (purified protein [1]) [M⁻¹ s⁻¹] | Km (purified protein [2]) [µM] | kcat (purified protein [2]) [s⁻¹] | kcat/Km (purified protein [2]) [M⁻¹ s⁻¹]
1 | B1 | 411 ± 18 | 2.8 ± 0.3 | 6800 ± 600 | 297 ± 14 | 7.5 ± 0.9 | 25300 ± 1700
2 | B2 | 407 ± 15 | 2.6 ± 0.3 | 6700 ± 500 | 302 ± 15 | 8.1 ± 1.1 | 25800 ± 2100
3 | B3 | 415 ± 17 | 2.4 ± 0.3 | 6500 ± 500 | 295 ± 23 | 9.1 ± 1.7 | 26400 ± 2200
4 | B4 | 403 ± 12 | 2.5 ± 0.4 | 6200 ± 300 | 311 ± 18 | 8.4 ± 1.2 | 27000 ± 2400
